Assay results: publication PMC10786891, “Massively parallel profiling of RNA-targeting CRISPR-Cas13d”

T1: EsCas13d, nuclease-dead (Eubacterium siraeum, UniProt B0MS50, R295A;H300A;R849A;H854A)
T1 sequence: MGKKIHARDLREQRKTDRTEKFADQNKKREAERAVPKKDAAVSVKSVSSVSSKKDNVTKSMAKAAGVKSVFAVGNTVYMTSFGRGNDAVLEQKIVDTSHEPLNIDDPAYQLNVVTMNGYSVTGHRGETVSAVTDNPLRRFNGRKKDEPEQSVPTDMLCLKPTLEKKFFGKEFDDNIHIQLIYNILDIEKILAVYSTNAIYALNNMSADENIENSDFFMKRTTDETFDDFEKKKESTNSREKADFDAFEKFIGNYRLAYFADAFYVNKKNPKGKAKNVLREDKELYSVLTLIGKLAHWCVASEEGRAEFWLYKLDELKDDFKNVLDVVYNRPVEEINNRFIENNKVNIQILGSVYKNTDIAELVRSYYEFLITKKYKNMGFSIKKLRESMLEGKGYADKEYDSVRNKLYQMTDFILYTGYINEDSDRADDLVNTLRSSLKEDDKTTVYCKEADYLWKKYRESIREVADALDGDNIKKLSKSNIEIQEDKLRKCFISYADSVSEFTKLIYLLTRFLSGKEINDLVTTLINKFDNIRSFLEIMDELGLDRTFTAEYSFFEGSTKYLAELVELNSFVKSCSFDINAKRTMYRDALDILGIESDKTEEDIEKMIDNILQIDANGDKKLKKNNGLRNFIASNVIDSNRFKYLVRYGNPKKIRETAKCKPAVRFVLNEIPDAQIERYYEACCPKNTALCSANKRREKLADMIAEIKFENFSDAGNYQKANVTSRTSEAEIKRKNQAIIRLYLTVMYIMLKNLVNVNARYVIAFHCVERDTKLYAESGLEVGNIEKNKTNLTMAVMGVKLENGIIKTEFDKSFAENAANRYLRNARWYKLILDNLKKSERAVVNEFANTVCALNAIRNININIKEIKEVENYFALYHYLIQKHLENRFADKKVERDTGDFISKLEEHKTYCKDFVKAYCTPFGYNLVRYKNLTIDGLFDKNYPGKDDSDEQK

B1: target 1 MT 5'PFS GCA 3'PFS ACA (mixed)
RNA 1: CACCCGUGCAAAAAUGCAGGGGUCUAAAACUGAGCGGAUAACCUCUCUAUGG
RNA 2: GGGAAUGGAUCCACAUCUACGAAUUCGCACCAUAGAGAGGUUAUCCGCUCAACAAGAUCGGAAGAGCACACGU
B2: target 1 MT 5'PFS GUC 3'PFS UAG (mixed)
RNA 1: CACCCGUGCAAAAAUGCAGGGGUCUAAAACUGAGCGGAUAACCUCUCUAUGG
RNA 2: GGGAAUGGAUCCACAUCUACGAAUUCGUCCCAUAGAGAGGUUAUCCGCUCAUAGAGAUCGGAAGAGCACACGU
B3: target 1 MT 5'PFS GCU 3'PFS CGC (mixed)
RNA 1: CACCCGUGCAAAAAUGCAGGGGUCUAAAACUGAGCGGAUAACCUCUCUAUGG
RNA 2: GGGAAUGGAUCCACAUCUACGAAUUCGCUCCAUAGAGAGGUUAUCCGCUCACGCAGAUCGGAAGAGCACACGU
B4: target 1 insU 3' of 15,insG 3' of 6 (mixed)
RNA 1: CACCCGUGCAAAAAUGCAGGGGUCUAAAACUGAGCGGAUAACCUCUCUAUGG
RNA 2: GGGAAUGGAUCCACAUCUACGAAUUCGUACCAUAGAGUAGGUUAUCCGGCUCACCGAGAUCGGAAGAGCACACGU
B5: target 1 MT 5'PFS GCA 3'PFS UUC (mixed)
RNA 1: CACCCGUGCAAAAAUGCAGGGGUCUAAAACUGAGCGGAUAACCUCUCUAUGG
RNA 2: GGGAAUGGAUCCACAUCUACGAAUUCGCACCAUAGAGAGGUUAUCCGCUCAUUCAGAUCGGAAGAGCACACGU
B6: target 1 U11C,C21U (mixed)
RNA 1: CACCCGUGCAAAAAUGCAGGGGUCUAAAACUGAGCGGAUAACCUCUCUAUGG
RNA 2: GGGAAUGGAUCCACAUCUACGAAUUCGUACUAUAGAGAGGCUAUCCGCUCACCGAGAUCGGAAGAGCACACGU
B7: target 1 MT 5'PFS CCA 3'PFS AAU (mixed)
RNA 1: CACCCGUGCAAAAAUGCAGGGGUCUAAAACUGAGCGGAUAACCUCUCUAUGG
RNA 2: GGGAAUGGAUCCACAUCUACGAAUUCCCACCAUAGAGAGGUUAUCCGCUCAAAUAGAUCGGAAGAGCACACGU
B8: target 1 MT 5'PFS UAA 3'PFS AAG (mixed)
RNA 1: CACCCGUGCAAAAAUGCAGGGGUCUAAAACUGAGCGGAUAACCUCUCUAUGG
RNA 2: GGGAAUGGAUCCACAUCUACGAAUUCUAACCAUAGAGAGGUUAUCCGCUCAAAGAGAUCGGAAGAGCACACGU
B9: target 1 MT 5'PFS AUG 3'PFS CGG (mixed)
RNA 1: CACCCGUGCAAAAAUGCAGGGGUCUAAAACUGAGCGGAUAACCUCUCUAUGG
RNA 2: GGGAAUGGAUCCACAUCUACGAAUUCAUGCCAUAGAGAGGUUAUCCGCUCACGGAGAUCGGAAGAGCACACGU
B10: target 1 MT 5'PFS GUC 3'PFS UAA (mixed)
RNA 1: CACCCGUGCAAAAAUGCAGGGGUCUAAAACUGAGCGGAUAACCUCUCUAUGG
RNA 2: GGGAAUGGAUCCACAUCUACGAAUUCGUCCCAUAGAGAGGUUAUCCGCUCAUAAAGAUCGGAAGAGCACACGU
B11: target 1 MT 5'PFS GCU 3'PFS CGA (mixed)
RNA 1: CACCCGUGCAAAAAUGCAGGGGUCUAAAACUGAGCGGAUAACCUCUCUAUGG
RNA 2: GGGAAUGGAUCCACAUCUACGAAUUCGCUCCAUAGAGAGGUUAUCCGCUCACGAAGAUCGGAAGAGCACACGU
B12: target 1 MT 5'PFS GCA 3'PFS UUA (mixed)
RNA 1: CACCCGUGCAAAAAUGCAGGGGUCUAAAACUGAGCGGAUAACCUCUCUAUGG
RNA 2: GGGAAUGGAUCCACAUCUACGAAUUCGCACCAUAGAGAGGUUAUCCGCUCAUUAAGAUCGGAAGAGCACACGU
B13: target 1 MT 5'PFS GUC 3'PFS ACA (mixed)
RNA 1: CACCCGUGCAAAAAUGCAGGGGUCUAAAACUGAGCGGAUAACCUCUCUAUGG
RNA 2: GGGAAUGGAUCCACAUCUACGAAUUCGUCCCAUAGAGAGGUUAUCCGCUCAACAAGAUCGGAAGAGCACACGU
B14: target 1 MT 5'PFS AAG 3'PFS CUC (mixed)
RNA 1: CACCCGUGCAAAAAUGCAGGGGUCUAAAACUGAGCGGAUAACCUCUCUAUGG
RNA 2: GGGAAUGGAUCCACAUCUACGAAUUCAAGCCAUAGAGAGGUUAUCCGCUCACUCAGAUCGGAAGAGCACACGU
B15: target 1 MT 5'PFS AAG 3'PFS CUG (mixed)
RNA 1: CACCCGUGCAAAAAUGCAGGGGUCUAAAACUGAGCGGAUAACCUCUCUAUGG
RNA 2: GGGAAUGGAUCCACAUCUACGAAUUCAAGCCAUAGAGAGGUUAUCCGCUCACUGAGAUCGGAAGAGCACACGU
B16: target 1 MT 5'PFS UAA 3'PFS AAC (mixed)
RNA 1: CACCCGUGCAAAAAUGCAGGGGUCUAAAACUGAGCGGAUAACCUCUCUAUGG
RNA 2: GGGAAUGGAUCCACAUCUACGAAUUCUAACCAUAGAGAGGUUAUCCGCUCAAACAGAUCGGAAGAGCACACGU
B17: target 1 MT 5'PFS UAA 3'PFS AAU (mixed)
RNA 1: CACCCGUGCAAAAAUGCAGGGGUCUAAAACUGAGCGGAUAACCUCUCUAUGG
RNA 2: GGGAAUGGAUCCACAUCUACGAAUUCUAACCAUAGAGAGGUUAUCCGCUCAAAUAGAUCGGAAGAGCACACGU
B18: target 1 MT 5'PFS UAA 3'PFS AAA (mixed)
RNA 1: CACCCGUGCAAAAAUGCAGGGGUCUAAAACUGAGCGGAUAACCUCUCUAUGG
RNA 2: GGGAAUGGAUCCACAUCUACGAAUUCUAACCAUAGAGAGGUUAUCCGCUCAAAAAGAUCGGAAGAGCACACGU
B19: target 1 MT 5'PFS GCU 3'PFS CGU (mixed)
RNA 1: CACCCGUGCAAAAAUGCAGGGGUCUAAAACUGAGCGGAUAACCUCUCUAUGG
RNA 2: GGGAAUGGAUCCACAUCUACGAAUUCGCUCCAUAGAGAGGUUAUCCGCUCACGUAGAUCGGAAGAGCACACGU
B20: target 1 MT 5'PFS GUG 3'PFS GGA (mixed)
RNA 1: CACCCGUGCAAAAAUGCAGGGGUCUAAAACUGAGCGGAUAACCUCUCUAUGG
RNA 2: GGGAAUGGAUCCACAUCUACGAAUUCGUGCCAUAGAGAGGUUAUCCGCUCAGGAAGAUCGGAAGAGCACACGU
B21: target 1 MT 5'PFS AUA 3'PFS CGG (mixed)
RNA 1: CACCCGUGCAAAAAUGCAGGGGUCUAAAACUGAGCGGAUAACCUCUCUAUGG
RNA 2: GGGAAUGGAUCCACAUCUACGAAUUCAUACCAUAGAGAGGUUAUCCGCUCACGGAGAUCGGAAGAGCACACGU
B22: target 1 MT 5'PFS CCG 3'PFS AUC (mixed)
RNA 1: CACCCGUGCAAAAAUGCAGGGGUCUAAAACUGAGCGGAUAACCUCUCUAUGG
RNA 2: GGGAAUGGAUCCACAUCUACGAAUUCCCGCCAUAGAGAGGUUAUCCGCUCAAUCAGAUCGGAAGAGCACACGU
B23: target 1 A9U,U19A (mixed)
RNA 1: CACCCGUGCAAAAAUGCAGGGGUCUAAAACUGAGCGGAUAACCUCUCUAUGG
RNA 2: GGGAAUGGAUCCACAUCUACGAAUUCGUACCAAAGAGAGGUUUUCCGCUCACCGAGAUCGGAAGAGCACACGU
B24: target 1 MT 5'PFS GUC 3'PFS UAC (mixed)
RNA 1: CACCCGUGCAAAAAUGCAGGGGUCUAAAACUGAGCGGAUAACCUCUCUAUGG
RNA 2: GGGAAUGGAUCCACAUCUACGAAUUCGUCCCAUAGAGAGGUUAUCCGCUCAUACAGAUCGGAAGAGCACACGU
B25: target 1 A14C,A16G (mixed)
RNA 1: CACCCGUGCAAAAAUGCAGGGGUCUAAAACUGAGCGGAUAACCUCUCUAUGG
RNA 2: GGGAAUGGAUCCACAUCUACGAAUUCGUACCAUAGGGCGGUUAUCCGCUCACCGAGAUCGGAAGAGCACACGU
B26: target 1 MT 5'PFS GUC 3'PFS UAU (mixed)
RNA 1: CACCCGUGCAAAAAUGCAGGGGUCUAAAACUGAGCGGAUAACCUCUCUAUGG
RNA 2: GGGAAUGGAUCCACAUCUACGAAUUCGUCCCAUAGAGAGGUUAUCCGCUCAUAUAGAUCGGAAGAGCACACGU
B27: target 1 MT 5'PFS GUC 3'PFS ACU (mixed)
RNA 1: CACCCGUGCAAAAAUGCAGGGGUCUAAAACUGAGCGGAUAACCUCUCUAUGG
RNA 2: GGGAAUGGAUCCACAUCUACGAAUUCGUCCCAUAGAGAGGUUAUCCGCUCAACUAGAUCGGAAGAGCACACGU
B28: target 1 MT 5'PFS AUA 3'PFS AGG (mixed)
RNA 1: CACCCGUGCAAAAAUGCAGGGGUCUAAAACUGAGCGGAUAACCUCUCUAUGG
RNA 2: GGGAAUGGAUCCACAUCUACGAAUUCAUACCAUAGAGAGGUUAUCCGCUCAAGGAGAUCGGAAGAGCACACGU

Target: T1, EsCas13d, nuclease-dead
Experiment: crRNA (strand 1, pre-loaded); Mg2+; 40 mM Tris-HCl pH 7.5, 150 mM NaCl, 6 mM MgCl2, 1 mM DTT, 0.1% Tween-20, 0.2 mg/ml BSA; 25 C; 10 min per concentration, then washed
Conditions: tags: His6-TwinStrep-SUMO cleaved; N-terminal SNAP kept (SNAP-Surface 488); label: 3' end held by stalled T7 RNA polymerase

Row | Binder | Kd [nM]
1 | B1 | 25.5 ± 4.5
2 | B2 | 17.6 ± 3.35
3 | B3 | 42.5 ± 15
4 | B4 | 14.9 ± 0.8
5 | B5 | 9.95 ± 1.2
6 | B6 | 9.9 ± 0.4
7 | B7 | 7.3 ± 2.35
8 | B8 | 66 ± 26
9 | B9 | 47.5 ± 22.5
10 | B10 | 16 ± 4.3
11 | B11 | 49.5 ± 17
12 | B12 | 7.65 ± 1.2
13 | B13 | ~56
14 | B14 | 38.5 ± 13.5
15 | B15 | 16 ± 5
16 | B16 | 40 ± 11
17 | B17 | 55 ± 16
18 | B18 | 47 ± 15.5
19 | B19 | 33.5 ± 8
20 | B20 | 20.3 ± 2.5
21 | B21 | 27 ± 6.5
22 | B22 | ~8.65
23 | B23 | 52 ± 10
24 | B24 | 15.1 ± 3.8
25 | B25 | ~90
26 | B26 | 16.1 ± 3.3
27 | B27 | 16.9 ± 2.05
28 | B28 | ~90
